Results from patent US10876098B2, “Polynucleotide, host cell and a method to recombinantly produce the protein encoded by said polynucleotide having peroxygenative activity” (CONSEJO SUPERIOR DE INVESTIGACIONES CIENTIFICAS (CSIC), priority 2015, dated 2020).

Key:
[1] = Stability at high acetonitrile concentrations; format: physicochemical; conditions: 5 hours of incubation, 50% to 100% co-solvent, 20° C.; versus PaDa-I
Protocol: FIG. 2 Biochemical characteristics of the variants of the invention. A) Spectroscopic characteristics of the PaDa-I (thin line) and JaWa (thick line) mutants at rest. AU, arbitrary units. B) Thermostability analysis (T50) of the PaDa-I (black circles) and JaWa (white circles) mutants. The experiments were carried out using culture supernatants and each point represents the average value and standard deviation of three individual experiments. C) Stability of the PaDa-I (black bars) and JaWa (grey bars) mutants at high acetonitrile concentrations. The stabilities were determined after 5 hours of incubation of the enzyme in increasing concentrations of the co-solvent (from 50% to 100%) at 20° C. in 10 mM pH 7.0 potassium phosphate buffer. […] The error bars indicate standard deviations.

[2] = Propranolol transformation reaction analysed by HPLC-PDA; format: biochemical; conditions: absence of ascorbic acid
Protocol: FIG. 13 Chromatogram showing the enzyme reactions.
(§1) The reactions were analysed by means of chromatography in reverse phase (HPLC). The equipment was composed of a tertiary pump (Varian-Agilent Technologies, USA) coupled to an autosampler (Merck Millipore, MA, USA); for the separation, a Zorbax Eclipse plus C18 column (15 cm×4.6 cm) at 40° C. was used and the detection was performed using a photodiode detector (PDA) (Varian, Agilent Technologies, USA). The mobile phase selected was a gradient from 10% methanol and 90% ddH2O (in both cases with 0.1% of acetic acid) up to 90% methanol and 10% ddH2O at a flow rate of 0.8 mL/min. The reaction was quantified at 280 nm (based on HPLC standards). […] The standard deviations were less than 5% in all cases.

[3] = Turnover with 5′-hydroxypropranolol as substrate, HPLC; format: biochemical; conditions: 0.03 μM enzyme, 0.4 mM 5′-hydroxypropranolol, 2 mM H2O2, absence of ascorbic acid
Protocol: FIG. 14 Turnover rates of AaeUPO, JaWa and SoLo. […] The disappearance of the product 5′-hydroxypropranolol can be observed due to the formation of its corresponding quinone by means of the peroxidase activity of the enzyme.
as §1

[4] = Thermostability assay (T50), culture supernatants, residual activity with ABTS; format: physicochemical
Protocol: An individual S. cerevisiae colony was selected with the corresponding clone (grown in a SC drop-out minimal medium plate: 100 mL of 6.7% yeast nitrogen base, 100 mL of 19.2 g/L uracil-free amino acid supplement, 100 mL of 20% glucose, 1 mL of 25 g/L chloramphenicol and ddH2O up to 1,000 mL) was inoculated in 2 mL of selective minimal medium (as in the SC plate medium, but with 20 g of bacto agar and rafinose instead of galactose) and was incubated for 48 hour at 30° C. and 220 RPM. An aliquot of this culture was taken such that, upon inoculating it in 5 mL of new minimal medium, optical density at 600 nm would have a value of 0.25 (optical density, OD600=0.25). This starter was incubated until completing two full growth cycles (between 6 and 8 hours), at which time 1 mL of cells were taken to inoculate 9 mL of expression medium in a 100 mL flask (OD600=0.1). This culture of each clone was incubated for 72 hours at 25° C. and 220 RPM (at peak UPO activity; OD600=25-30), the cells were separated by centrifugation (10 minutes at 4,500 RPM and 4° C.) and supernatant was filtered (using a glass and nitrocellulose filter with a pore size of 0.45 μm). Appropriate dilutions of the supernatants were prepared so that aliquots of 20 μL would give rise to a linear response in kinetic mode. 50 μL of supernatant were used for each point in a temperature gradient created by means of thermocyclator, from 30 to 80° C. After incubating for 10 minutes, the aliquots were cooled in ice for 10 minute and tempered at room temperature for 5 minutes. […] The thermostability values were calculated in accordance with the ratio between the residual activities incubated at different temperatures and the value of initial activity at room temperature. The value of T50 was determined as the value of the temperature at which the protein loses 50% of it initial activity after incubating for 10 minutes.
An individual S. cerevisiae colony was selected with the corresponding clone (grown on a SC drop-out minimal medium plate: 100 mL of 6.7% yeast nitrogen base, 100 mL of 19.2 g/L uracil-free amino acid supplement, 100 mL of 20% glucose, 1 mL of 25 g/L chloramphenicol and ddH2O up to 1,000 mL), was inoculated in 3 mL of selective minimal medium (like the SC plate medium, but with 20 g of bacto agar and rafinose instead of galactose) and incubated for 48 hours at 30° C. and 220 RPM. […] The thermostability values were calculated in accordance with the ratio between the residual activities incubated at different temperatures and the value of initial activity at room temperature. The value of T50 was determined as as the temperature value at which the protein loses 50% of its initial activity after incubating for […].

[5] = Total turnover number (TTN) for synthesis of 5′-hydroxypropranolol from propranolol; format: biochemical; conditions: 0.03 μM enzyme, propranolol, 2 mM H2O2 added every 10 minutes
Protocol: FIG. 15 Calculation of the total turnover number (TTN) of AaeUPO and SoLo.
as §1

B1: JaWa: PaDa-I variant with added mutations G241D and R257K, SEQ ID NO: 24 (protein)
chain: MKYFPLFPTLVYAVGVVAFPDYASLAGLSQQELDAIIPTLEAREPGLPPGPLENSSAKLVNDEAHPWKPLRPGDIRGPCPGLNTLASHGYLPRNGVATPAQIINAVQEGFNFDNQAAIFATYAAHLVDGNLITDLLSIGRKTRLTGPDPPPPASVGGLNEHGTFEGDASMTRGDAFFGNNHDFNETLFEQLVDYSNRFGGGKYNLTVAGELRFKRIQDSIATNPNFSFVDFRFFTAYGETTFPANLFVDGRRDDGQLDMDAARSFFQFSRMPDDFFRAPSPRSDTGVEVVVQAHPMQPGKNVGKINSYTVDPTSSDFSTPCLMYEKFVNITVKSLYPNPTVQLRKALNTNLDFLFQGVAAGCTQVFPYGRD
[1]
  stability in the presence of acetonitrile: higher stability in the presence of acetonitrile
[2]; 0.03 μM enzyme, 4 mM propranolol, 2 mM H2O2
  regioselectivity against 5′-hydroxypropranolol: 99%
[2]; compared among AaeUPO, PaDa-I, JaWa, SoLo
  amount of 5′-hydroxypropranolol produced: produce the largest amount of 5′-hydroxypropranolol
[3]
  5′-hydroxypropranolol maintained without oxidising: oxidise practically the entire product
[4]; culture supernatants, temperature at which the enzyme retains 50% of its activity after 10 minutes of incubation
  Thermal stability, T50: 59.7 °C
[4]; versus PaDa-I variant
  increase in thermostability (T50) with respect to PaDa-I: 2 °C
[5]; 4 mM ascorbic acid
  TTNs, With ascorbic acid: 48,000
[5]; absence of ascorbic acid
  TTNs, Without ascorbic acid: 15,000
